One data set concerns the target NF-kB p65 (RelA) (UniProt Q04206). Briefly: competition. The note with it: unit not given.
The test system of another data set is NF-kB. Briefly: cell_activity. The conditions noted are these: NF-kB SEAP reporter, 0.1 uM.

Sequence of NF-kB p65 (RelA) (Q04206 whole entry): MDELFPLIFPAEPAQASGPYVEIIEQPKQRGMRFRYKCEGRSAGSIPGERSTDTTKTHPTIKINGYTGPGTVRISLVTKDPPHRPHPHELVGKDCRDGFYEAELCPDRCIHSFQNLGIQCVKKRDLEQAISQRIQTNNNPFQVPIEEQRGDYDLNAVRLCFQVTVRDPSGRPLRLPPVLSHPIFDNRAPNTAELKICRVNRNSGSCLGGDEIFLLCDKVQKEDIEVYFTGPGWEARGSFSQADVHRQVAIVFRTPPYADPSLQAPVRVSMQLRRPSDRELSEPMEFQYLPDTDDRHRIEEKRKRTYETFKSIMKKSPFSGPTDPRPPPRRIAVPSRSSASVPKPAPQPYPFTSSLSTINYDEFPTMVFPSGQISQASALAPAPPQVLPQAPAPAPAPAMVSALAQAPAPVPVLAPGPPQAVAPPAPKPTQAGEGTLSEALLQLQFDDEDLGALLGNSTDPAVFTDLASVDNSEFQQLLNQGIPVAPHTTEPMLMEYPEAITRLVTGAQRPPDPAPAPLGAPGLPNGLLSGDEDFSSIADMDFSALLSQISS

Sequence “AGTTGAGGGGATTTCCCCAGGC (double strand) [SEQ-A]” registered an IC50 in the data set with NF-kB p65 (RelA) (ELISA competition with immobilized NF-kB site, room temperature) of 1.51.

In the case of “CCTTGAAGGGATTTCCCTCC (double strand) [SEQ-1]”, in the data set with NF-kB p65 (RelA) (PS (*): C*C*TTGAAGG*G*A*TTTCCCT*C*C / G*G*AGGGAAA*T*C*CCTTCAA*G*G), the IC50 is 0.84.

Turning to GAGGGGATTTCCCC (double strand) [SEQ-35], the activity in the data set on NF-kB (PS (*): G*A*GGGGATTT*C*CCC / antisense 3'-CTCCC*C*T*AAAG*G*GGG (so in the source)) came out at 70 % inhibition.

Sequence “TTGAGGGGATTTCCCC (double strand) [SEQ-37]” displayed an activity in the data set with NF-kB (PS (*): T*T*G*A*GGGGATTT*C*CCC / antisense 5'-G*G*GGAAA*T*C*CCCTCAA) of 75 % inhibition.

As for “CCTTGAAGGGATTTCCCTCC (double strand) [SEQ-x (full PS)]”, the IC50 in the data set with NF-kB p65 (RelA) (PS at all positions, both strands, 2.60 in Table 3) is 3.97.

In the data set with NF-kB (PS (*): G*A*GGGGATTT*C*CCC / antisense 5'-G*GGGAAA*T*C*CCCTC), GAGGGGATTTCCCC (double strand) [SEQ-34] yielded an activity of 99 % inhibition.

As for “AGTATCGGGGATTTCCCCTTAAC (double strand) [SEQ-E]”, in the data set with NF-kB p65 (RelA), the IC50 was found to be 1.91.

Turning to “CCTTGAGGGGATTTCCCCCC (double strand) [SEQ-I]”, the IC50 with NF-kB p65 (RelA) stood at 0.384.

In the data set on NF-kB (PS (*): C*C*TTG*A*GGGGATTT*C*CCCCC / antisense 5'-G*G*GGGGAAA*T*C*CCCTCAAGG), “CCTTGAGGGGATTTCCCCCC (double strand) [SEQ-9]” returned an activity of 70 % inhibition.

Consider “TTGAGGGGATTTCCCC (double strand) [SEQ-36]”, for which the activity with NF-kB (PS (*): T*TG*A*GGGGATTT*C*CCC / antisense 5'-G*GGGAAA*T*C*CCCTCAA) was found to be 80 % inhibition.

“TTGAGGGGATTTCCCC (double strand) [SEQ-38]” yielded an activity with NF-kB (PS (*): TTG*A*GGGGATTT*C*CCC / antisense 5'-GGGGAAA*T*C*CCCTCAA) of 90 % inhibition.

With GAGGGGATTTCCCC (double strand) [SEQ-33], in the data set on NF-kB (PS (*): G*A*GGGGATTT*C*CCC / antisense 5'-GGGGAAA*T*C*CCCTC), the activity came out at 70 % inhibition.

“ACCAGGGGATTTCCCCGTCCCAC (double strand) [SEQ-G]” showed an IC50 with NF-kB p65 (RelA) of 1.71.

The sequence “AGCTGGGGATTTCCCCTTTG (double strand) [SEQ-F]” came in with an IC50 with NF-kB p65 (RelA) of 3.4.

In the data set with NF-kB p65 (RelA) (PS at 2 bonds at each end of both strands), “CCTTGAGGGGATTTCCCCCC (double strand) [SEQ-I-PS]” had an IC50 of 1.06.

“AGTTGAGGGGATTTCCCCGC (double strand) [SEQ-H]” gave an IC50 with NF-kB p65 (RelA) of 1.08.

Values taken from patent publication US20090143319.
